Data as given in patent publication US20090208496A1 (BIOTEST, published 2009).
Positions count from the first letter of the chain named. In names and notes the source's numbering stands.

B1: humanized B-F5 version H37L/L4L (antibody, V domains shown)
VH: EEQLVESGGGLVKPGGSLRLSCAASGFSFSDCRMYWLRQAPGKGLEWIGVISVKSENYGANYAESVRGRFTISRDDSKNTVYLQMNSLKTEDTAVYYCSASYYRYDVGAWFAYWGQGTLVTVSS
VL: DIVLTQSPDSLAVSLGERATINCRASKSVSTSGYSYIYWYQQKPGQPPKLLIYLASILESGVPDRFSGSGSGTDFTLTISSLQAEDVAVYYCQHSRELPWTFGQGTKVEIK
notes: also called hB-F5; H37L/L4L IgG1
B2: humanized B-F5 version H37V/L4L (antibody, V domains shown)
VH: B1 VH with L37V
VL: B1 VL
notes: also called hB-F5
B3: humanized B-F5 version H37L/L4M (antibody, IgG1, V domains shown)
VH: B1 VH
VL: B1 VL with L4M
notes: also called hB-F5; H37L/L4M IgG1
B4: humanized B-F5 version H37V/L4M (antibody, V domains shown)
VH: B1 VH with L37V
VL: B1 VL with L4M
notes: also called hB-F5

Each binder was assayed against T1, soluble CD4 (human, UniProt P01730 26-396) (assay: competitive ELISA against biotinylated mB-F5 on coated soluble CD4, 37 C 2 hours).
T1 construct: extracellular domain
Protocol: Culture supernatants of transfectomas producing the four versions of hB-F5 were collected, and concentrated. The different antibodies were purified from culture supernatants by affinity chromatography using protein A Sepharose and assessed for their CD4 binding activity by measuring, by means of competitive ELISA, their inhibitory activities against the binding of biotinylated mB-F5 to soluble CD4 coated on microtiter plates. Incubation time is 2 hours for 37 C and overnight for 4 C.

Relative binding activity (% of mB-F5) | Binder
30 % of mB-F5 | B1
10 % of mB-F5 | B2
30 % of mB-F5 | B3
10 % of mB-F5 | B4
